Earlier results on 1 substance are cited in article PMC2806950.

Usually Kd stands for the free concentration of one partner at which half of the binding sites on the other are occupied at equilibrium, for simple one-to-one binding.

The target in this data set is EcoKI R/M enzyme (Escherichia coli) (UniProt P08956). Nature of the data set: given as Ka.
Sequence of EcoKI R/M enzyme (Escherichia coli) (P08956 whole entry, chain 1 of 3): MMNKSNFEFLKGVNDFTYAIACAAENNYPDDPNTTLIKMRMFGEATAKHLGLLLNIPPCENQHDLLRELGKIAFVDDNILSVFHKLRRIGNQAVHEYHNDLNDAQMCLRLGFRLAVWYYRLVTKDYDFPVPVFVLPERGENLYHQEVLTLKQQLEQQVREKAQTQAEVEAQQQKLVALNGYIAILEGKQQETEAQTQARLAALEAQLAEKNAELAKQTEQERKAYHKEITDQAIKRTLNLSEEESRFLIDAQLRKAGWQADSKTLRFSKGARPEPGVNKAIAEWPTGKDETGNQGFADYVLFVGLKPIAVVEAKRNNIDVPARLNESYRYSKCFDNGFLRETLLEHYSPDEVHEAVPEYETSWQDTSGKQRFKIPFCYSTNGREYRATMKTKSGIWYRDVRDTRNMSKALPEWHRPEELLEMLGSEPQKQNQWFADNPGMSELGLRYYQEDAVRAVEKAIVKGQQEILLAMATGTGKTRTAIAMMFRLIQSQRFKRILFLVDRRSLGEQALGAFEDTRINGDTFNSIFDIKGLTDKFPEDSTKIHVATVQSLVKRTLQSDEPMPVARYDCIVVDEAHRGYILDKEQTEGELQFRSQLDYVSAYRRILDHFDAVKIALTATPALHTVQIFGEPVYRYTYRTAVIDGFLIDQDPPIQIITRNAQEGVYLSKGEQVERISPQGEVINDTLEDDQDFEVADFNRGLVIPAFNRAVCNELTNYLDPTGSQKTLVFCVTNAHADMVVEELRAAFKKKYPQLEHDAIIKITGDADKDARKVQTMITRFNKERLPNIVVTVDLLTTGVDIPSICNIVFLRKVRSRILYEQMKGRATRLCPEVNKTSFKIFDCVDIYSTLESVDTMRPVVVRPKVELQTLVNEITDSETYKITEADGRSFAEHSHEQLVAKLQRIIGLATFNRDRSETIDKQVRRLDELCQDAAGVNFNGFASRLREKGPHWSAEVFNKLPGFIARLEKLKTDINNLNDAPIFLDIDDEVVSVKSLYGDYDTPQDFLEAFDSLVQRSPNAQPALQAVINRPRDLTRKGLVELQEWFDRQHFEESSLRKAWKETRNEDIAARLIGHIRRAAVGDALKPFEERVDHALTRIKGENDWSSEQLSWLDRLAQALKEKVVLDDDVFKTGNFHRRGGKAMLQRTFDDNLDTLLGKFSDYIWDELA
Sequence of EcoKI R/M enzyme (Escherichia coli) (P08957 whole entry, chain 2 of 3, further chain): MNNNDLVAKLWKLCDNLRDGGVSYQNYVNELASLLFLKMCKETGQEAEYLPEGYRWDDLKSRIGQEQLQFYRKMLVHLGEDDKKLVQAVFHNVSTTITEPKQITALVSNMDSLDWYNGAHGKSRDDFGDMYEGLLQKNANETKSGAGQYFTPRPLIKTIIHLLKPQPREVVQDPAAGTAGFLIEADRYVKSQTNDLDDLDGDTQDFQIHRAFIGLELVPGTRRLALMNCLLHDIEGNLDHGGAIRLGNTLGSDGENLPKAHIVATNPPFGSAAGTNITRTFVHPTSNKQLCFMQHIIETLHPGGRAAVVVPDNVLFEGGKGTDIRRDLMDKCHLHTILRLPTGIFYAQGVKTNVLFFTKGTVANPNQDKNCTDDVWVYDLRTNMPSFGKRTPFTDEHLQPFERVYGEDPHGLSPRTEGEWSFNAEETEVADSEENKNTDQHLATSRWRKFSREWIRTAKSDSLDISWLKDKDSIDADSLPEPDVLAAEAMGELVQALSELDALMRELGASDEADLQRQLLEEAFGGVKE
Sequence of EcoKI R/M enzyme (Escherichia coli) (P05719 2-464, chain 3 of 3, further chain): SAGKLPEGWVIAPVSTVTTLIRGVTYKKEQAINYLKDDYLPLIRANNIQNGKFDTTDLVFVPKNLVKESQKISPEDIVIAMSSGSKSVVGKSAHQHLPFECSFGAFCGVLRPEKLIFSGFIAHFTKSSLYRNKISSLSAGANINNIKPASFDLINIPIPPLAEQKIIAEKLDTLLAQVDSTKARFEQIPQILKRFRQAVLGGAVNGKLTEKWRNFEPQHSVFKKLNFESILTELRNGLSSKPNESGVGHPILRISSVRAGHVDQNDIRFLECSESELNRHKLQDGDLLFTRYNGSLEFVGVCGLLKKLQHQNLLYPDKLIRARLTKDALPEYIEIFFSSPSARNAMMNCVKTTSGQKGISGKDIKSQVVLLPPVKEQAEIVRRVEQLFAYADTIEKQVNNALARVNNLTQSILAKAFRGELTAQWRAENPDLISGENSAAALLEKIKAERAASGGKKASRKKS

Sequence of Ocr (P03775 whole entry): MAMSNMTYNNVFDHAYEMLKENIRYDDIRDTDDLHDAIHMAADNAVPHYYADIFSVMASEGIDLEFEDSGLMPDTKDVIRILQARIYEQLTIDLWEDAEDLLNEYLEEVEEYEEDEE

Ocr (from UniProt P03775): the Kd is 0.05 nM.
